Residue numbers refer to the chain shown, from its start.
T1: human GIP receptor (human) (UniProt P48546)
T1 sequence (looked up): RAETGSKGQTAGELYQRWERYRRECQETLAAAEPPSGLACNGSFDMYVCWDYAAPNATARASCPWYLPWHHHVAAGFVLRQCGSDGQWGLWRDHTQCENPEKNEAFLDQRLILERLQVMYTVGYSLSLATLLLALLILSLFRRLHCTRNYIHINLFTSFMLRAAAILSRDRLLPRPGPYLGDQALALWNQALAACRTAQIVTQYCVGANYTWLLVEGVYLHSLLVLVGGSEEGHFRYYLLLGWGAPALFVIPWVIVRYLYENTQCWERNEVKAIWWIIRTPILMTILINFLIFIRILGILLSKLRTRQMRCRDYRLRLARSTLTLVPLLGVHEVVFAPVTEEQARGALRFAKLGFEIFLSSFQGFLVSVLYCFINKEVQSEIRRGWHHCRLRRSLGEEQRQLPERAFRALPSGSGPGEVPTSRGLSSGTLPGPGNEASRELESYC

B1: Example 704 (peptide)
chain: YXQGTXTSDXXIXLDXKAAXEFIEXLIEGGPSSGAPPPSGSEE
modifications: synthetic construct; SITE 2: note = 2-Aminoisobutyric Acid; SITE 6: note = alpha-methyl-2-fluoro-L-phenylalanine; SITE 10: note = 3-(4-Pyridyl)-L-alanine; SITE 11: note = alpha-methyl-L-serine; SITE 13: note = alpha-methyl-leucine; SITE 16: note = L-ornithine; SITE 17: note = Lysine is chemically mo
B2: Example 705 (peptide)
chain: B1 chain with S41E
modifications: synthetic construct; SITE 2: note = 2-Aminoisobutyric Acid; SITE 6: note = alpha-methyl-2-fluoro-L-phenylalanine; SITE 10: note = 3-(4-Pyridyl)-L-alanine; SITE 11: note = alpha-methyl-L-serine; SITE 13: note = alpha-methyl-leucine; SITE 16: note = L-ornithine; SITE 17: note = Lysine is chemically mo
B3: Example 726 (peptide)
chain: B1 chain with S41T, E43X
modifications: synthetic construct; SITE 2: note = 2-Aminoisobutyric Acid; SITE 6: note = alpha-methyl-2-fluoro-L-phenylalanine; SITE 10: note = 3-(4-Pyridyl)-L-alanine; SITE 11: note = alpha-methyl-L-serine; SITE 13: note = alpha-methyl-leucine; SITE 16: note = L-ornithine; SITE 17: note = Lysine is chemically mo
B4: Example 64 (peptide)
chain: YXQGTFTSDFSXXLDKKAQXAFIEYLLEGGPSSGAPPPGGSG
modifications: synthetic construct; SITE 2: note = 2-Aminoisobutyric Acid; SITE 12: note = L-ornithine; SITE 13: note = alpha-methyl-leucine; SITE 17: note = Lysine is chemically modified through conjugation of the epsilon-amino group of the Lysine side chain with (2-[2-(2-Amino-ethoxy)-ethoxy]-acetyl)-(gamma-Glu)
B5: Example 65 (peptide)
chain: B4 chain with G42E
modifications: synthetic construct; SITE 2: note = 2-Aminoisobutyric Acid; SITE 12: note = L-ornithine; SITE 13: note = alpha-methyl-leucine; SITE 17: note = Lysine is chemically modified through conjugation of the epsilon-amino group of the Lysine side chain with (2-[2-(2-Amino-ethoxy)-ethoxy]-acetyl)-(gamma-Glu)
B6: Example 672 (peptide)
chain: YXQGTXTSDXXIXLDXKAAXEFIEXLLEGGPSSGAPPPSGS
modifications: synthetic construct; SITE 2: note = 2-Aminoisobutyric Acid; SITE 6: note = alpha-methyl-2-fluoro-L-phenylalanine; SITE 10: note = 3-(4-Pyridyl)-L-alanine; SITE 11: note = alpha-methyl-L-serine; SITE 13: note = alpha-methyl-leucine; SITE 16: note = L-ornithine; SITE 17: note = Lysine is chemically mo
B7: Example 695 (peptide)
chain: B6 chain with L27V, A35E
modifications: synthetic construct; SITE 2: note = 2-Aminoisobutyric Acid; SITE 6: note = alpha-methyl-2-fluoro-L-phenylalanine; SITE 10: note = 3-(4-Pyridyl)-L-alanine; SITE 11: note = alpha-methyl-L-serine; SITE 13: note = alpha-methyl-leucine; SITE 16: note = L-ornithine; SITE 17: note = Lysine is chemically mo
B8: Example 722 (peptide)
chain: B6 chain with L27I, S41X
modifications: C-terminal γGlu; C-terminal amide; synthetic construct; SITE 2: note = 2-Aminoisobutyric Acid; SITE 6: note = alpha-methyl-2-fluoro-L-phenylalanine; SITE 10: note = 3-(4-Pyridyl)-L-alanine; SITE 11: note = alpha-methyl-L-serine; SITE 13: note = alpha-methyl-leucine; SITE 16: note = L-ornithine; SITE 17: note = Lysine is chemically mo
B9: Example 707 (peptide)
chain: B6 chain with L27I, A35E
modifications: synthetic construct; SITE 2: note = 2-Aminoisobutyric Acid; SITE 6: note = alpha-methyl-2-fluoro-L-phenylalanine; SITE 10: note = 3-(4-Pyridyl)-L-alanine; SITE 11: note = alpha-methyl-L-serine; SITE 13: note = alpha-methyl-leucine; SITE 16: note = L-ornithine; SITE 17: note = Lysine is chemically mo
B10: Example 693 (peptide)
chain: B6 chain with L27V
modifications: synthetic construct; SITE 2: note = 2-Aminoisobutyric Acid; SITE 6: note = alpha-methyl-2-fluoro-L-phenylalanine; SITE 10: note = 3-(4-Pyridyl)-L-alanine; SITE 11: note = alpha-methyl-L-serine; SITE 13: note = alpha-methyl-leucine; SITE 16: note = L-ornithine; SITE 17: note = Lysine is chemically mo
B11: Example 669 (peptide)
chain: YXQGTXTSDXSILLDKKAQXAFIEXLEEGGPSSGAPPPSGTGE
modifications: synthetic construct; SITE 2: note = 2-Aminoisobutyric Acid; SITE 6: note = alpha-methyl-2-fluoro-L-phenylalanine; SITE 10: note = 3-(4-Pyridyl)-L-alanine; SITE 17: note = Lysine is chemically modified through conjugation of the epsilon-amino group of the Lysine side chain with (2-[2-(2-Amino-ethoxy))
B12: Example 63 (peptide)
chain: YXQGTFTSDFSXXLDKKAQXAFIEYLLEGGPSSGAPPPGGE
modifications: synthetic construct; SITE 2: note = 2-Aminoisobutyric Acid; SITE 12: note = L-ornithine; SITE 13: note = alpha-methyl-leucine; SITE 17: note = Lysine is chemically modified through conjugation of the epsilon-amino group of the Lysine side chain with (2-[2-(2-Amino-ethoxy)-ethoxy]-acetyl)-(gamma-Glu)

The binders below were run against human glucagon receptor (human) (UniProt P47871) (assay: cell-based or functional assay).
Chain of human glucagon receptor (human) (P47871 26-477): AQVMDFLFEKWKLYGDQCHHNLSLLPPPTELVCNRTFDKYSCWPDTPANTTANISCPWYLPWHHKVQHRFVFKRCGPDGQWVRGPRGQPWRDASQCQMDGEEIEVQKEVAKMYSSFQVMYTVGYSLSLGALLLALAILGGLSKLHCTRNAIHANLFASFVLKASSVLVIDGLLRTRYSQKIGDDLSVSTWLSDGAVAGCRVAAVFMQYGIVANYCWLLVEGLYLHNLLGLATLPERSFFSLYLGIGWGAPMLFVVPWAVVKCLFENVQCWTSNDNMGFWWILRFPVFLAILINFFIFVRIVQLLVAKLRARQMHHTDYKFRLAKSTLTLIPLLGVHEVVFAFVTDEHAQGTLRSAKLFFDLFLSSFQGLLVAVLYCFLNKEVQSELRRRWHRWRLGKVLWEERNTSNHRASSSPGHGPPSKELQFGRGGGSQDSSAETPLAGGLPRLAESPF

Row | Binder | Relative cAMP EC50 | cAMP Rel EC50 (1% HSA) | cAMP Rel EC50, nM (in the presence of 1% HSA)
1 | B1 | 1.85 nM | 239 nM | 
2 | B2 | 1.7 nM | 234 nM | 
3 | B3 | 1.71 nM | 226 nM | 
4 | B4 | 4.94 nM |  | 626 nM
5 | B5 | 6.49 nM |  | 808 nM
6 | B6 |  | 162 nM | 
7 | B7 |  | 164 nM | 
8 | B8 | 1.71 nM | 170 nM | 
9 | B9 | 1.06 nM | 199 nM | 
10 | B10 |  | 304 nM | 
11 | B11 |  | 173 nM | 
12 | B12 | 4.1 nM |  | 709 nM

These binders were tested against T1, human GIP receptor (human) (assay: cell-based or functional assay).

Row | Binder | Relative cAMP EC50 | cAMP Rel EC50 (1% HSA) | cAMP Rel EC50, nM (in the presence of 1% HSA)
13 | B1 | 0.013 nM | 1.2 nM | 
14 | B2 | 0.0128 nM | 1.15 nM | 
15 | B3 | 0.013 nM | 1.22 nM | 
16 | B4 | 0.309 nM |  | 24.9 nM
17 | B5 | 0.739 nM |  | 30.2 nM
18 | B6 |  | 1.53 nM | 
19 | B7 |  | 0.772 nM | 
20 | B8 | 0.01 nM | 0.953 nM | 
21 | B9 | 0.0107 nM | 1.05 nM | 
22 | B10 |  | 1.1 nM | 
23 | B11 |  | 1.41 nM | 
24 | B12 | 0.255 nM |  | 40.4 nM

Each binder was assayed against hGLP-1R (Homo sapiens, UniProt P43220) (assay: cell-based or functional assay).
Chain of hGLP-1R (P43220 24-463): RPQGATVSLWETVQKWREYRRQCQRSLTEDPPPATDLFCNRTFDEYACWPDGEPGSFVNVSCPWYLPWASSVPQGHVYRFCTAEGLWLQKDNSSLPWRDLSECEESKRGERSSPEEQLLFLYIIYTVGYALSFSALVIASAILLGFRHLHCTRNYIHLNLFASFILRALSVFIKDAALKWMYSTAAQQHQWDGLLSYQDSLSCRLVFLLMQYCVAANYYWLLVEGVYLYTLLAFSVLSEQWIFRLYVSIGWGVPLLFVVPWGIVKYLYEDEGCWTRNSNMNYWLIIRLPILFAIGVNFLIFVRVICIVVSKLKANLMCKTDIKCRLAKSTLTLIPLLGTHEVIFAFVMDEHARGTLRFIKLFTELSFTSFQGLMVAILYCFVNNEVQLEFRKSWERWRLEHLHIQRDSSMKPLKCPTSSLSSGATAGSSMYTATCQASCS

Row | Binder | Relative cAMP EC50 | cAMP Rel EC50 (1% HSA) | cAMP Rel EC50, nM (in the presence of 1% HSA)
25 | B1 | 0.287 nM | 33.9 nM | 
26 | B2 | 0.305 nM | 33.7 nM | 
27 | B3 | 0.247 nM | 33.3 nM | 
28 | B4 | 4.08 nM |  | 397 nM
29 | B5 | 4.21 nM |  | 462 nM
30 | B6 |  | 49.4 nM | 
31 | B7 |  | 19.5 nM | 
32 | B8 | 0.252 nM | 27.2 nM | 
33 | B9 | 0.248 nM | 30.6 nM | 
34 | B10 |  | 18 nM | 
35 | B11 |  | 27.3 nM | 
36 | B12 | 4.78 nM |  | 348 nM

Source: patent publication US20240270821A1, “GIP/GLP1/GCG TRI-RECEPTOR AGONISTS AND USES THEREOF” (priority 2023, published 2024)
